Biological target: mAb1 wild-type (monoclonal antibody IgG1) (human)
Assay: SPR

- % of maximal binding response of wild-type antibody: 100%
B1: recombinant mouse FcγRIV (receptor)
chain: GLQKAVVNLDPKWVRVLEEDSVTLRCQGTFSPEDNSIKWFHNESLIPHQDANYVIQSARVKDSGMYRCQTALSTISDPVQLEVHMGWLLLQTTKWLFQEGDPIHLRCHSWQNRPVRKVTYLQNGKGKKYFHENSELLIPKATHNDSGSYFCRGLIGHNNKSSASFRISLGDPGSPSMFPPWHQ

— PMC7531572
